experiment: soluble on expression in E. coli; label from the status in PepcDB or PDB records

Sequence	soluble on expression in E. coli
MKQESASQSTPPPSLSPAPSSAQPFWGDGDPQALWIFGYGSLVWKPDFAYSDSRVGFVRGYSRRFWQGDTFHRGSDKMPGRVVTLLEDHEGCTWGVAYQVRGEQVNEALKYLNVREAVLGGYDTKEVTFYPQDTPDQPLTALAYVATPQNPGYLGPAPEEVIATQILACRGFSGHNLEYLLRLADFMQLCGPQAQDEHLEAIVDAVGTLLPCSYLPEQPLALT	soluble
SYEQLKGEWNRKSPNLSKCGEELGRLKLVLLELNFLPTTGTKLTKQQLILARDILEIGAQWSILRKDIPSFERYMAQLKCYYFDYKEQLPESAYMHQLLGLNLLFLLSQNRVAEFHTELERLPAKDIQTNVYIKHPVSLEQYLMEGSYNKVFLAKGNIPAESYTFFIDILLDTIRDEIAGCIEKAYEKILFTEATRILFFNTPKKMTDYAKKRGWVLGPNNYYSFASQQQKPEDTTIPSTELAKQVIEYARQLEMIV	soluble
MSLRIYFDKILERASPKVERQALTHVERLAMVRRHGDFSLAYSTAVQQKLSYFGDADGYIAFGTKMKHHFALGDPVAAPARRPDFIKRFVETAGDPWFVQISEETARVLAGLGYKVNRLGIDTSLVLSEHDFSGKRNETVRYSERWLLKKGFSFEEDKRTVFLDEIARLSENWRGDRIVKRWEMGFLNRPFYDQLGTDMRRFVLHGPDGELIALLDFDPLFRDGKVIGYTTAFKRKHIDASPHAEIGLTKFAVDRFREEGISVVTLGLSPLVDVTPSGFAESDFWRNTFQRAYASPWVNRRRFNLQGQAAFKRRFHGKEEPVYIAFRKGTYVEMLGLLRLVKAIEGHHHHHH	not soluble
MVEEMNNEVTEMKSFSVGDVVSGKVTKVEDKQAFVDVGFKVDGIIPISELSSLHVEKVSDVLSEGDELELKVLKVEDDELILSKRAVQAEKAWETLQAALDSGEVIEAEVADVVKGGLVVDLGVRGFIPASLVERHYVEDFSDYKGRTLRLKVVELDKEANKLILSQRAVLDEEVEAKKKEVLASLQPGDVVEGTVQRLTDFGAFVDVGGVDGLVHISQLAHHRVETPAEVVKEGDAVKVKVLSVDPDSERVSLSIKETLPGPWEQVEGTIQPGDVIEGTVKRLVSFGAFVEVAPGVEGLVHISQIANRHIGTPGEVLSEGERVQAKVLDVNISEKRISLSIRELLDDAGSNQSDREVYESTNEESSGFSLGDMIGDELKKYKLEHHHHHH	soluble
MINDIKILGVGGSPRKNGNTDVLLDSFLKGAESAGVETKKVLLRDYSIEPCIGCERCRKTGTCTRFHDGMSLLYPEIEAAKGLTLGSPTYNYNVTALMKAFIDRLYPYYNFTNVRPRRYSSKLAGQGRKAIVFSVCEQLEIEEMGFTLGALGMPLEALGYEIVEKFPVTGYFDRGAVSRDEELLRKTFEAGKKMAEALHLEHHHHHH	not soluble
MKSLQALFGGTFDPVHYGHLKPVETLANLIGLSRVIIMPNNVPPHRPQPEASSAQRKYMLELAIADKPLFTLDERELQRNAPSYTAQTLKAWREEQGPEAPLAFIIGQDSLLNFPTWHDYDTILDNTHLIVCRRPGYPLEMTQAQHQQWLEQHLTHTPDDLHQLPAGKIYLAETPWLNISATLIRERLEKGESCDDLLPENVLNYINQQGLYR	not soluble
MYPSDFASALESLSLKEMRQAIHRLLDIRDENTWMLFGTLPFYACSPDEDDQKLLRRLRAAKNVTVRNDPDGRSRLNVNIFDGNIIVTDFGDTPPLGNIQTDSLPSAYEKWRETKLAKELSCHCPNVRCLGPNVLVKNSYYQDTDFTKRQARS	not soluble
MGSDKIHHHHHHMRVKIYTLADDYAGYNSPFWAQHGVSFLVEVEGKKILFDTASYAEPILFNMKLLNLNPRDIDMIVLSHNHFDHTGGLLGILREINRKVPIFAHPEIFKVSFALEPEFMYAGTPRLKEEAEKLGGIWILTRDPITLMPGVFTLGEIKEEEKVEFEKGSTGLFKIEDGRVIEDKVEDEIGLAINTRKGLVVLAGCAHPGIVSMVKKAIKLSGNDKVYAVLGGFHLINAEDSRIEKTVEAFKELEVKKVYAGHCTGLKAESRFAQELGDRFEKLHSGKIIEIS	not soluble
MIHKRTNEGDLVIESFADKRCKDLLEGNPPKGFPTTLVRIVQRKLFMLDKAVDLKDLRSPPGNRLEALKGERKGQYSIRINDQFRICFEWRSNGAYEVEIVDYH	not soluble

Reference: the DeepSol protein solubility set
